# Results as given in patent US20260183411A1, “TARGETING SORTILIN” (priority 2024, published 2026).
# Experiments:
# [1] = test system: MDA-MB-231 xenograft; assay: MDA-MB-231 murine xenograft efficacy model; format: in vivo, mouse
# How it was run: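 Female BALB/c nude mice bearing subcutaneous MDA-MB-231 tumours (10×10^6 cells in PBS/Matrigel), treated from ~150-200 mm^3 mean volume. Free MMAE given i.v. QW×4 at 0.6 or 0.06 mg/kg in 25 mM histidine/10% sucrose pH 7. Caliper volumes twice weekly; TGI (%) calculated against vehicle group.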
# [2] = Murine plasma stability assay; format: in vitro ADME; settings: mouse, 2 μM, 37° C., read-out: Murine plasma stability assay, T1/2
# Experimental: Frozen plasma was thawed at 37° C. and centrifuged at 4000 rpm to remove any clots and transferred to 96-well reaction plates by WuXi AppTec. Test compounds were added to the reaction plate at a final concentration of 2 μM and either stopped immediately or incubated at 37° C. for 5 minutes, 10 minutes, 30 minutes, 60 minutes, or 120 minutes. At the end of incubation, stop solution consisting of 200 ng/mL tolbutamide and 200 ng/mL labetalol in ACN was added to precipitate protein and mixed thoroughly. Samples were then transferred to a bioanalysis plate and shaken for 10 minutes prior to HPLC-MS/MS analysis of percent remaining compound.
# Table 14 tabulates the plasma stability for each of the three PDCs tested.
# [3] = molecular target: T1, SORT1 (Homo sapiens, UniProt Q99523); assay: FP competition binding assay
# T1 construct: Human SORT1 (78-755)-His (Acrobiosystems); His (C); purchased Acrobiosystems SON-H52H5
# T1 sequence (Q99523 78-755): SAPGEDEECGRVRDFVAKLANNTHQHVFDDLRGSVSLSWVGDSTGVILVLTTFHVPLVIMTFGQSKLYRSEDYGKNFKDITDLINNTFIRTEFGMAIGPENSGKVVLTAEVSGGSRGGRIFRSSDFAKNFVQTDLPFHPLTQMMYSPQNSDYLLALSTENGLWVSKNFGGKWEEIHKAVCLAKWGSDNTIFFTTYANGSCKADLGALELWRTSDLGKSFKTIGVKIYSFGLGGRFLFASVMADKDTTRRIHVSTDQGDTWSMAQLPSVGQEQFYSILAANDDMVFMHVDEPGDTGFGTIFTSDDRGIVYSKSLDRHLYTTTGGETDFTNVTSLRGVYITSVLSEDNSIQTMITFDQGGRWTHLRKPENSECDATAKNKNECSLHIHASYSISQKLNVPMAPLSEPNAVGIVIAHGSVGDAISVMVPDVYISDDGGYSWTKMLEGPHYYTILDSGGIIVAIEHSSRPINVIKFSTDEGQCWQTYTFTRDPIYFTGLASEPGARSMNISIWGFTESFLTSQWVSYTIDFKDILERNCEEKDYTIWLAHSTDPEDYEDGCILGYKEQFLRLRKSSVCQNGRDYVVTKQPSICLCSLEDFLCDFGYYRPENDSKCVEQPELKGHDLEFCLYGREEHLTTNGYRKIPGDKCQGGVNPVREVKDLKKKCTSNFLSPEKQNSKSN
# Experimental: Competition binding studies were conducted in a similar manner to the direct binding protocol. Unlabeled peptides were prepared with a 12-point, two-fold dilution series in a V-bottom 96-well plate for a total volume of 25 uL with a starting concentration of 50 μM. A 10× working stock of the FAM labeled peptide was prepared as described for the Direct binding experiment.
# A 500 nM working solution (EC80) of target protein was prepared in the FP buffer (1×PBS, pH 7.4, 0.1% Tween-20). An aliquot of 20 μL of the 500 nM working solution was then added to 2.5 μL of the FAM-peptide, after which 2.5 μL of the unlabeled peptide dilution series was added and mixed by pipetting in a V-bottom 96-well plate. […] The 384-well plate was then centrifuged 1 min, 4000 rpm and fluorescence and polarization of dye measured on a Biotek Synergy Neo2 plate reader using the same settings as for the Direct Binding experiment. Data were then fitted to a One site—Fit log IC50 curve in GraphPad to calculate the IC50.
# The various conjugates were evaluated in a competitive fluorescence polarization study as described elsewhere herein.
structure (smiles),measurement,setting,value
CC[C@H](C)[C@@H]([C@@H](CC(=O)N1CCC[C@H]1[C@H](OC)[C@@H](C)C(=O)N[C@H](C)[C@@H](O)c1ccccc1)OC)N(C)C(=O)[C@@H](NC(=O)[C@H](C(C)C)N(C)C(=O)OCc1ccc(NC(=O)[C@H](CCCNC(N)=O)NC(=O)[C@@H](NC(=O)CCCC(=O)NCCC(=O)N(C)CC(=O)N(C)CC(=O)N(C)CC(=O)N(C)CC(=O)N[C@@H](C)C(=O)N2CCC[C@H]2C(=O)N[C@@H](CCCNC(=N)N)C(=O)N[C@@H](Cc2c[nH]c3ccccc23)C(=O)N[C@@H](CC(=O)O)C(=O)N[C@@H](C)C(=O)N2CCC[C@H]2C(=O)N[C@@H](CC(C)C)C(=O)N[C@@H](CCCNC(=N)N)C(=O)N[C@@H](CC(=O)O)C(=O)N2CCC[C@H]2C(=O)N[C@@H](C)C(=O)N[C@@H](CC(C)C)C(=O)N[C@@H](CCCNC(=N)N)C(=O)N[C@@H](CCC(N)=O)C(=O)N[C@@H](CC(C)C)C(=O)N[C@@H](CC(C)C)C(=O)O)C(C)C)cc1)C(C)C [PRGN_WT_PDC],"tumor growth inhibition, dose dependence","[1]; 3, 1, 0.3 mg/kg i.v. QW×4",dose-dependent tumor growth inhibition
same,body weight variation (Example 6),"[1]; PDC at each dose, free MMAE at equivalency to 3 mg/kg PDC",mirrored that observed with vehicle treatment
same,body weight loss (Example 8),"[1]; PDCs 3 mg/kg, free MMAE at molar equivalency (0.6 mg/kg)",body weight loss tracked each other
same,half-life,[2],17.1 min
same,increase in affinity relative to parent homing peptide,[3],~2.5 ×
